Marks after values point to notes of the source that are not given here.
Experiments:
[1] = test system: Stage IV non-squamous or squamous NSCLC; experiment: Phase III randomized open-label study of atezolizumab vs platinum-based chemotherapy: efficacy (OS, PFS, ORR, DOR per RECIST v1.1), incl. PD-L1 and bTMB subgroups; assay type: in vivo, human
Method: As described below, the primary endpoint of this study was improvement in overall survival (OS). Secondary endpoints included progression-free survival (PFS), overall response rate (ORR), and duration of response (DOR), among others.
FIG. 1 illustrates the study design.
At screening, tumor specimens from each potentially eligible patient were tested for PD-L1 expression by a central laboratory using an IHC assay. Only patients who are PD-L1 selected (TC1/2/3 or 101/2/3; corresponding to 1% PD-L1 expressing TCs and 1% of tumor area occupied by PD-L1 expressing ICs) were enrolled. […] Randomization was stratified by sex (male vs. female), ECOG Performance Status (0 vs. 1), histology (non-squamous vs. squamous), and PD-L1 tumor expression by IHC (TC1/2/3 and any IC vs. TC0 and 101/2/3).
Patients randomized to receive pemetrexed in combination with either cisplatin or carboplatin (non-squamous disease) received chemotherapy intravenously on Day 1 of each 21-day cycle for four or six cycles, followed by maintenance therapy with pemetrexed. Patients randomized to receive gemcitabine in combination with either cisplatin or carboplatin (squamous disease) received cisplatin or carboplatin intravenously on Day 1 and gemcitabine intravenously on Days 1 and 8 of each 21-day cycle for four or six cycles, followed by best supportive care. The intended number of cycles planned for the platinum-based induction chemotherapy (i.e., four or six cycles) was specified by the investigator prior to study randomization. Treatment will continue until disease progression, unacceptable toxicity, or death.
All patients underwent tumor assessment at baseline and every 6 weeks (±7 days) for 48 weeks following Cycle 1, Day 1 regardless of treatment delays. […] In the absence of radiographic disease progression per RECIST v1.1, tumor assessments continued regardless of whether patients start a new anti-cancer therapy.
The primary efficacy outcome measure for this study is OS, defined as the time from randomization to death from any cause.
The secondary efficacy outcome measures for this study are as follows: • PFS, defined as the time from randomization to the first occurrence of disease progression, as determined by the investigator with use of RECIST v1.1, or death from any cause, whichever occurs first • Objective response (PR plus CR) as determined by the investigator according to RECIST v1.1 • DOR, defined as the time from the first occurrence of a documented objective response to the time of disease progression, as determined by the investigator with use of RECIST v1.1, or death from any cause, whichever occurs first • OS at 1- and 2-year landmark timepoints • TTD and change from baseline (i.e., improvement or deterioration based on presenting symptomatology) in each of the patient-reported lung cancer symptoms (cough, dyspnea, or chest pain) with use of the SILO scale • TTD in patient-reported lung cancer symptoms, defined as time from randomization to deterioration (10-point change) in any of the following symptom subscales (cough, dyspnea [multi-item scale], and chest pain), whichever occurs first, as measured by the EORTC QLQ-LC13 • OS and investigator-assessed PFS according to RECIST v1.1 in the PD-L1 (defined with SP263 IHC assay) and bTMB subpopulations. The bTMB assay (Foundation Medicine, Cambridge, MA) identifies single nucleotide variants at ≥0.5% across 394 genes and estimates tumor fraction by maximum somatic allele frequency, filters out germline events and counts non-driver somatic mutations to generate a bTMB score. The bTMB score cutoffs evaluated were 0, 6 and […] of 16 (16 mutations/1.1 Mb) equates to approximately 14.5 mutations/Mb.

[2] = test system: patients with Stage IV NSCLC; settings: in vivo
[3] = test system: patients with Stage IV NSCLC; experiment: Phase III study: safety, adverse events graded according to NCI CTCAE v4.0; settings: All treated patients; Chemo N = 263, Atezo N = 286
[4] = TC1/2/3 or IC1/2/3-WT population
[5] = bTMB 6 cutoff, bTMB BEP-WT population

Question: How did the “OS vs chemotherapy (in words)” value ([1]; PD-L1-positive BEP subgroups) turn out when atezolizumab was run?
Answer: Its value is “OS improvement favoring atezolizumab vs chemotherapy”.

Question: What about the “Median OS” value [1, 4] of the same substance?
Answer: The value was 17.5 months.

Question: And the “OS HR, stratified (atezo vs chemo)” value [1, 4]?
Answer: Its value is 0.832.

Question: And the “Median OS” value ([1]; TC2/3 or IC2/3-WT population)?
Answer: Its value is 18.2 months.

Question: And the “OS HR, stratified (atezo vs chemo)” value ([1]; TC2/3 or IC2/3-WT population)?
Answer: The value was 0.717.

Question: What about the “Confirmed ORR” value ([1]; TC3 or IC3-WT population) of the same substance?
Answer: Its value is 38.3% (29.08,.

Question: And the “Overall Survival, Median” value ([1]; TC3 or IC3-WT population)?
Answer: The value was 20.2 months.

Question: And the “Overall Survival, Stratified HR (atezo vs chemo)” value ([1]; TC3 or IC3-WT population)?
Answer: The value was 0.595.

Question: And the “Overall Survival, improvement of median vs chemo” value ([1]; TC3 or IC3-WT population)?
Answer: Its value is 7.1 months.

Question: What about the “Progression-Free Survival, Median” value ([1]; TC3 or IC3-WT population) of the same substance?
Answer: The value was 8.1 months.

Question: And the “Progression-Free Survival, Stratified HR (atezo vs chemo)” value ([1]; TC3 or IC3-WT population)?
Answer: The value was 0.630.

Question: What about the “Progression-Free Survival, improvement of median vs chemo” value ([1]; TC3 or IC3-WT population) of the same substance?
Answer: Its value is 3.1 months.

Question: And the “PFS vs chemotherapy (in words)” value ([1]; across PD-L1 BEP subgroups)?
Answer: The value was “PFS improvement with atezolizumab was observed”.

Question: What about the “OS unstratified HR (atezolizumab vs chemotherapy)” value [1, 5] of the same substance?
Answer: Its value is 0.75.

Question: What about the “PFS HR (atezolizumab vs chemotherapy)” value [1, 5] of the same substance?
Answer: Its value is 0.55.

Question: And the “AESI Adrenal insufficiency Gr3-4, patients with event” value [2]?
Answer: Its value is 0.

Question: And the “AESI Adrenal insufficiency, patients with event” value [2]?
Answer: The value was 2.

Question: And the “AESI Adrenal insufficiency, percent of patients” value [2]?
Answer: The value was “(0.7%)”.

Question: What about the “AESI Colitis Gr3-4, patients with event” value [2] of the same substance?
Answer: The value was 2.

Question: What about the “AESI Colitis Gr3-4, percent of patients” value [2] of the same substance?
Answer: Its value is “(0.7%)”.

Question: And the “AESI Colitis, patients with event” value [2]?
Answer: The value was 3.

Question: What about the “AESI Colitis, percent of patients” value [2] of the same substance?
Answer: Its value is “(1.0%)”.

Question: What about the “AESI Diabetes Mellitus Gr3-4, patients with event” value [2] of the same substance?
Answer: Its value is 1.

Question: What about the “AESI Diabetes Mellitus Gr3-4, percent of patients” value [2] of the same substance?
Answer: Its value is “(0.3%)”.

Question: And the “AESI Diabetes Mellitus, patients with event” value [2]?
Answer: Its value is 2.

Question: And the “AESI Diabetes Mellitus, percent of patients” value [2]?
Answer: Its value is “(0.7%)”.

Question: What about the “AESI Hepatitis Gr3-4, patients with event” value [2] of the same substance?
Answer: The value was 12.

Question: And the “AESI Hepatitis Gr3-4, percent of patients” value [2]?
Answer: The value was “(4.2%)*”.

Question: What about the “AESI Hepatitis, patients with event” value [2] of the same substance?
Answer: Its value is 46.

Question: What about the “AESI Hepatitis, percent of patients” value [2] of the same substance?
Answer: The value was “(16.1%)”.

Question: What about the “AESI Hyperthyroidism Gr3-4, patients with event” value [2] of the same substance?
Answer: The value was 0.

Question: And the “AESI Hyperthyroidism, patients with event” value [2]?
Answer: The value was 13.

Question: What about the “AESI Hyperthyroidism, percent of patients” value [2] of the same substance?
Answer: The value was “(4.5%)”.

Question: And the “AESI Hypothyroidism Gr3-4, patients with event” value [2]?
Answer: Its value is 0.

Question: What about the “AESI Hypothyroidism, patients with event” value [2] of the same substance?
Answer: Its value is 27.

Question: What about the “AESI Hypothyroidism, percent of patients” value [2] of the same substance?
Answer: Its value is “(9.4%)”.

Question: And the “AESI Infusion-Related Reactions Gr3-4, patients with event” value [2]?
Answer: The value was 0.

Question: And the “AESI Infusion-Related Reactions, patients with event” value [2]?
Answer: The value was 4.

Question: And the “AESI Infusion-Related Reactions, percent of patients” value [2]?
Answer: Its value is “(1.4%)”.

Question: And the “AESI Myocarditis Gr3-4, patients with event” value [2]?
Answer: The value was 1.

Question: What about the “AESI Myocarditis Gr3-4, percent of patients” value [2] of the same substance?
Answer: The value was “(0.3%)”.

Question: What about the “AESI Myocarditis, patients with event” value [2] of the same substance?
Answer: The value was 1.

Question: And the “AESI Myocarditis, percent of patients” value [2]?
Answer: Its value is “(0.3%)”.

Question: And the “AESI Myositis Gr3-4, patients with event” value [2]?
Answer: Its value is 0.

Question: And the “AESI Myositis, patients with event” value [2]?
Answer: Its value is 1.

Question: What about the “AESI Myositis, percent of patients” value [2] of the same substance?
Answer: The value was “(0.3%)”.

Question: And the “AESI Nephritis Gr3-4, patients with event” value [2]?
Answer: The value was 0.

Question: What about the “AESI Nephritis, patients with event” value [2] of the same substance?
Answer: Its value is 1.

Question: And the “AESI Nephritis, percent of patients” value [2]?
Answer: The value was “(0.3%)”.

Question: And the “AESI Pneumonitis Gr3-4, patients with event” value [2]?
Answer: Its value is 2.

Question: What about the “AESI Pneumonitis Gr3-4, percent of patients” value [2] of the same substance?
Answer: Its value is “(0.7%)”.

Question: And the “AESI Pneumonitis, patients with event” value [2]?
Answer: The value was 11.

Question: What about the “AESI Pneumonitis, percent of patients” value [2] of the same substance?
Answer: Its value is “(3.8%)”.

Question: And the “AESI Rash Gr3-4, patients with event” value [2]?
Answer: The value was 3.

Question: What about the “AESI Rash Gr3-4, percent of patients” value [2] of the same substance?
Answer: Its value is “(1.0%)”.

Question: What about the “AESI Rash, patients with event” value [2] of the same substance?
Answer: Its value is 44.

Question: And the “AESI Rash, percent of patients” value [2]?
Answer: Its value is “(15.4%)”.

Question: And the “AESI Severe Cutaneous Adverse Reaction Gr3-4, patients with event” value [2]?
Answer: Its value is 0.

Question: What about the “AESI Severe Cutaneous Adverse Reaction, patients with event” value [2] of the same substance?
Answer: The value was 2.

Question: And the “AESI Severe Cutaneous Adverse Reaction, percent of patients” value [2]?
Answer: Its value is “(0.7%)”.

Question: And the “AESI Vasculitis Gr3-4, patients with event” value [2]?
Answer: The value was 1.

Question: And the “AESI Vasculitis Gr3-4, percent of patients” value [2]?
Answer: The value was “(0.3%)”.

Question: And the “AESI Vasculitis, patients with event” value [2]?
Answer: The value was 1.

Question: And the “AESI Vasculitis, percent of patients” value [2]?
Answer: Its value is “(0.3%)”.

Question: And the “Immune-mediated Adrenal insufficiency requiring systemic corticosteroids, %” value [2]?
Answer: The value was “(0.3) %”.

Question: And the “Immune-mediated Diabetes mellitus requiring systemic corticosteroids, %” value [2]?
Answer: Its value is “(0.3) %”.

Question: And the “Immune-mediated Hypothyroidism requiring systemic corticosteroids, %” value [2]?
Answer: Its value is “(0.3) %”.

Question: And the “Immune-mediated Infusion-related reaction requiring systemic corticosteroids, %” value [2]?
Answer: Its value is “(0.3) %”.

Question: What about the “Immune-mediated Nephritis requiring systemic corticosteroids, %” value [2] of the same substance?
Answer: The value was “(0.3) %”.

Question: What about the “AE leading to any treatment withdrawal, % of patients” value [3] of the same substance?
Answer: The value was “(6.3%)”.
